One molecule from PMC13541299 can be followed below.

This test concerns the target biotinylated polymerization-blocked yeast αβ-tubulin, LR1 (β: T175R, V179R) (S. cerevisiae) (UniProt P09733). Description: BLI; biotinylated polymerization-blocked tubulin immobilised on Streptavidin (SA) biosensors (OctetR8), dipped into TOG2 at 2.3 to 200 nM; 100 mM PIPES pH 6.9, 10 mM NaCl, 1 mM MgCl2, 1 mM EGTA, 1 mM GTP, 0.1% BSA, 0.005% Triton X-100; association 300 s, dissociation 300 s; 1:1 model; steady-state amplitudes and global kinetic fit.

Where “and” joins values, the source holds several entries; their conditions need not be identical. Identical values can stand only once.

B1: Stu2-TOG2 (318–560) (domain or fragment)
chain: MLPEETILDKLPKDFQERITSSKWKDRVEALEEFWDSVLSQTKKLKSTSQNYSNLLGIYGHIIQKDANIQAVALAAQSVELICDKLKTPGFSKDYVSLVFTPLLDRTKEKKPSVIEAIRKALLTICKYYDPLASSGRNEDMLKDILEHMKHKTPQIRMECTQLFNASMKEEKDGYSTLQRYLKDEVVPIVIQIVNDTQPAIRTIGFESFAILIKIFGMNTFVKTLEHLDNLKRKKIEETVKTL
On to B1, for which the Kd – broadly, the concentration at which binding is half-saturated – was 8.9 nM and 9.6 nM; the koff – broadly, the rate constant with which the complex falls apart – came to 0.03 s⁻¹; the on-rate (kon) (in general, a measure of how fast the partners come together) worked out at 3.2e+06 M⁻¹ s⁻¹.
